From publication PMC6376064

Molecular target: Nrf2 (UniProt Q60795)
Assay: anti-Flag (Nrf2) co-IP, immunoblot
Details: reference: Keap1 wild type; sites T51,S53,T55,T80

## Keap1 (from UniProt Q9Z2X8) Keap1 4A
  binding against the reference: stronger
